Measurements published in the domain aggregation screens of Martell et al. (2025).

Test: soluble fraction after stress (log2 fold change); higher = more stays soluble; pooled small domains, quantitative proteomics
Conditions: stress: 50 degC
Procedure, shortened: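 Custom libraries of small protein domains were pooled and measured in a high-throughput format, with quantitative proteomics as the read-out. Each library was stressed at 50°C. The value is the log2 fold change in the amount of each protein that stays soluble after stress, used as a measure of aggregation propensity; higher values mean more of the protein stays soluble.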

| Sequence | soluble fraction (log2) |
| --- | --- |
| HMFPNLTNEEQQVMKVLAKTNDLQINMLSVQSNLPIARLTALLFSMEMKGVVKTLAGGVYHLL | -3.23 |
| HMREPIPVPSRPIRAGDLVEIPGTNRPAEVTAVKGDRLVLKAGVLSMTVKNDEVRLIEDDERAAM | 0.0715 |
| HMNERLKQLRLSLNLNQEEFGKWLGISKSGVSDIESGRRKVTEQHIIMLSNHNISEKWLRTGEGEMFV | -0.0803 |
| HMAWAVRAGEGVLIRAGQPGFSATTRGTALSNGAIGEGVRVRNLGSGKEIQAWVVDKGEVETR | 0.0168 |
| HMTGIQDVPALETRRVGNTFFFDRATDVQVYDLQGRLLQQARKVTSVSIGHLQQGVYVLTDGRASVKVQ | -1.23 |
| HMITLPDFVGKDVETVKAWAKENGITLIVNKVEDSAKKDTVISQTPTTYDYSKIMKGSSFTVNVAKE | -0.0122 |
| HMPNPALESARPAFEAFLSRFSDGEAMRGPAWGLWSLLHRKGNAPTASHAAGRDGMGVLAFLRHWQWG | -0.479 |
| HMEVFGDTKEEQMIIDILKLGITDLEHLQAKSMLEPAIFSQTLTMLEISGKIRPLGAGHWTL | -1.04 |
| HMVDPAFLAWQQKPENTWFGTDRRKTALAIAIAEEIRNDPANSNLVGAAFYARVAEETEETLN | -0.628 |
| HMVKETNYSFFLKQIDAGTVEQVQIEDTEIKFKVSTADGKEQVYSTVRVEDPDLVDRLYSKGNIDFTGN | -0.0595 |
| HMNILKAPMPGLILDVIVKESDLVKKGDPVIILEAMKMENILSSPVDGIVKEIKVNPQQTVEKNNTLIKFE | -0.0546 |
| HMKMDGESQRLLSLIKEQGGSLPIGDKSSPEAIYRLTQMSKKTFKMALGSLYKAKQVVLSPTEVRL | -0.69 |
| HMVVRKHDRYYTPEHRKLLMDTYERTNKYPTKQDMSELAKIIGVLPIKILWWYTHRRRQDRRKGEESSSP | -0.0096 |
| HMLAGKTYEVQTESGGKWTLVASYNVKSQAIQQAQALLESHKYSGVKVIAESDRKGEEVIFNEQSEVT | -0.0442 |
| HMPFSLHGVNEGSRNDNAARIAGYLISKNLNLDFVRIFLHNWNRDNKPPLPQQEIDSVVDNVKKTHDRKN | -0.828 |
| HMGSEYPSNPLASRWAKGVRLYHDEWGYGVIQAARGSEPDDYVITVRFESGAEKSFLPKFQAHSLMIVKD | -0.161 |
| HMTAGTTALNKLQQGMSTQQVQAALGTPSDRTVKESGVELWKYYYPYENMLLYLKFRDGHLVSFGTN | -0.0161 |
| HMPSQEQSDKNAAMAFLPVIVKNALNGKGLKISDDWKAAVNTALAQYPLVNKFFNADSPEVTELVMGL | -0.0489 |
| HMRRLGTTEIAGILRREISQGILIAKERLPSERSLADTYGVARGTVRQALNLLAREGLVQIRRSSGAYVTF | -0.33 |
| HMAIDYYQTLINLGYKLQDRGDYWQTSAIHRGGDNPTALQIYKNTGVWKDYVSGGGFKPFKALVEKSD | -0.802 |
| HMATQTGTVKWFNEGKGFGFIAPDDGSKDLFAHFSEIKTTGFKTLAEAQRVEFEVTEGRKGLQASNIK | 0.0521 |
| HMLPKILVMDGKVNKNALTTLGKDEEWVKKVLRNHNIHSIKDVLLALYDTKGKFQYQLYDDYEK | -0.0783 |
| HMEVVVPDFEKIYIRDLDKFVEGHNVRYEIVDSIYNLEKDKGTVVDQDPEPGSKVKHGRVIYLTVNAML | -0.207 |
| HMSTTHLTASVIKDKVNVRSEADSQNGAIIDKARTGERLLVTDYGNKWTGIVLPDGKRGYIMTEYLQF | 0.0443 |
| HMDLDPNKPAIPIAYPRVLLNIMAEKGFSRTEVLAGSGLADSVFDKPDHRITPAQFLFILMNSFYLS | -0.601 |
| HMVSGLEILKIQVQDHPSDWRWALLLARTHYENGNREAAVRTLRPLQRLHPDRLEVMTLWALLA | -0.00253 |
| HMGDTIGEQKAKEIALEHAGLKSSDVTFIRAVLEYDDRNWEYDVEFYDADTYTEYDYEIDAHTGKILSFDH | 0.0993 |
| HMLPVQGEEVAPGLYKFDFPFLADKRVWEKTINAFKAEHPELKVNYIYTGPDELNSKKKTHVLVYVFTES | -0.0974 |

| Sequence | soluble fraction (log2) |
| --- | --- |
| HMEKGWYKLGQDSYYVDDDGKIHKGWLELDGKKYYFDQEGKMVTGTVNIDGKDYTFNEKGELYVS | 0.183 |
| HMVDDNFGLGEVTDQNYLTVLGRALDLIGWTDEQADSYSLKTFGVPHWDELGRSQAEKLVAHLIGLLKEQM | -0.33 |
| HMPVQPMDPSIEHISALTGKQFQAFPGQDHRAHMTAHLNFMSTNIVRNNPAVMGAIQKNILEHISLMAQEQ | 0.153 |
| HMAIWAVFYKNEPFNLKSFNSLTSYPGPKYKKTSFSNPGHALNLAKKLNLTFGTEDFQVVKLTQGTIV | -2.61 |
| HMESRLQAAIALRKAGEHEQSREALKILADEPALRAQALLNIAWSFDNQGHERDAEGYYLAAIE | -0.131 |
| HMNIQKYFAGREQFIELLEAVGIRTLEQFASADPSTVLPELHQAKRMLKLQTEIPSAPVFREWVNQALS | -0.237 |
| HMSGIGTTIKMLRENKNISQEELGNVLGVSDKTISSWEINRTEPKMGIVQLLADYFGVSTDYLIKG | -0.146 |
| HMSGIVPAAPPLRPDLDIKWHTGDKVRHAKWGEGTIVSVKGEGEETELKIAFPGQGIRPFMQKYAPITR | 0.163 |
| HMKHVENLSDEKTIQAIQENPYMQYLLGLSKFTEKPVFVPELFVLIRKRLDQDFFNMLTLILAEADG | 0.143 |
| HMDYKYYIVKEPMVVKNLELPVGTRIVYFNTSLFGDSESSRPLKEKNIYQIFFPDDKPLIWGGVPVSLIER | -1.97 |
| HMVDQKLIQASAEHSGIRIDRFLSEQLPEHSRSYIQKLIKDGQVSIGGKAVKSNYKIAGTEEISLLIPDQ | 0.0523 |
| HMTPGPYETLKPAPLGSYIEPKIGFATAIEIARKEAVQLGIKTEAGGIWYGGDFPFYNVSFFDPDD | -0.615 |
| HMGLNELQVKLNEAMQRLSLKHRTVVVMHDIEGIPHDEIAKIVGVSVGTIRSRLFYARRQLQADLGEY | -2.57 |
| HMSRLLRTDAHLQYAAERGLPVTASAYTPVFAGAKQYTGRIESFDAQTIRFADGPAVERKAVARLEAE | 0.159 |
| HMSMPDERMLTSWMMARVKAAGKTMTRDAWNEFFERSNDSMDHMDMEMEKLLSYVYDKDGITLEDVEA | -0.394 |
| HMSVKLYPNPTRSVTTFATDVDKWYLYDNQGKLVSEGNTKTIDVTAFPVGIYFVKTIKGNNSTFVKLIV | -1.4 |
| HMNLLDYDFFEKMSSKEQEEIVEKVYIDFLNKSTGTNSPFYLKLFEKGKKSYIVNWLNENNF | -1.44 |
| HMDVKPWERQEGESAKAFEAFTIYAGLGADRSLRAVAQQLGKSKTLMDRWSSTYSWVARAAEYDADLQRK | -0.575 |
| HMPSQLPLAFARRHGVLLRGFSNGLAQLTVRPEVSTLSLAETRRHLGVPLALEKVTTERFDQLLREAYEA | -0.37 |
| HMSDPEAFIRQTVAAAEPEGIALSVLGKRVRGKFRTFKLRDLGYAQFRPYLGDLDGIKVEQRDGQSYARLD | -0.795 |
| HMKTGNIVMVNLGWKGKYYSIKMFFPQVSKPSRKDVQDQIEKIYPGGKLYTFVVSNYEPGEPMLHA | -1.06 |
| HMDLTSDANLKEAKDQILNLLNDGKRHHVTEINKILLPPVQVQEALRFLIHEETVRVDASFLF | -0.167 |
| HMKQVSDTGAIDAAIREVMDANPDKVAEYRSGKDKLFGFFVGQIMRAMAGKAAPVVVNDRLKALLD | 0.355 |
| HMTSPNPLIRSTTPGLETNKKGGIIVDENEMSTRENVFAGGDAVTGAATVILAMGAGKKAAAAIDAKLQN | 0.12 |
| HMNTETAVTKAIDQIQVMMDLRNRSVSFTRDQETGTDIIKVIDDNTGDTIRQMPSEELLTFMKNLTQ | 0.147 |
| HMNTRWDDAAQTWLRKVIEQQPVLVQISAAKRLRDQAEQRAREAGEEVVTEQHVKRAGLELGFGEP | 0.0799 |
| HMRLLAESIARGLDPEGSGGLWAKEAGAEALKLMETLAAEAPHGGSFTAAAYRDLFESLVHQGEVREA | 0.0472 |
